Source: patent US20150231240A1, “ANTI-C16ORF54 ANTIBODIES AND METHODS OF USE THEREOF” (priority 2012, published 2015)

What was measured:
[1] = target: T1, C16orf54 on peripheral blood and bone marrow mononuclear cells (Homo sapiens, UniProt Q6UWD8); test: Flow cytometry of PBMC and BMMC from healthy donors; format: binding
T1 construct: endogenous in cells; host or cells: PBMC and BMMC from healthy donors
T1 sequence (Q6UWD8 1-224): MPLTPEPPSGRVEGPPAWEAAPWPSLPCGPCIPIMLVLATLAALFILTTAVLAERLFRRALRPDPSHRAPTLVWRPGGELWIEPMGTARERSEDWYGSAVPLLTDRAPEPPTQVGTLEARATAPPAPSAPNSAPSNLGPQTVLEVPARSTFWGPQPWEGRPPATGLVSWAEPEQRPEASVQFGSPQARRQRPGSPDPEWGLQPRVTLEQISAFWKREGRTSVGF
Experimental: Anti-C16orf54 antibodies were tested for their binding to various cell lines and primary samples (e.g., AML, CLL, lymphoma) using flow cytometry. Copy number of C16orf54 on the various cell lines was determined. Peripheral blood mononuclear (PBMC) and bone marrow mononuclear (BMMC) cells from healthy donors were immunofluorescently stained using the antibodies of CD19, CD3, CD14, CD34, CD33, lineage markers, in addition to an anti-C16orf54 antibody and isotype control antibody, and then evaluated by flow cytometric analysis. […] In single lineage gated populations, C16orf54 is broadly expressed in CD19+ B cells, CD14+ monocytes, CD34+/lineage—progenitor cells and CD33+ myeloid cells, whereas CD3+ T cells have a distinctively low to undetectable level of C16orf54.

[2] = target: T2, C16orf54 in cells and human tissues (Homo sapiens, UniProt Q6UWD8); test: Human C16orf54 immunohistochemistry (IHC); format: binding
T2 construct: from tissue; host or cells: isolated hematological tumour cells (lymphoma, AML, CLL) and human tissues, OCT-embedded frozen sections
T2 sequence (Q6UWD8 1-224): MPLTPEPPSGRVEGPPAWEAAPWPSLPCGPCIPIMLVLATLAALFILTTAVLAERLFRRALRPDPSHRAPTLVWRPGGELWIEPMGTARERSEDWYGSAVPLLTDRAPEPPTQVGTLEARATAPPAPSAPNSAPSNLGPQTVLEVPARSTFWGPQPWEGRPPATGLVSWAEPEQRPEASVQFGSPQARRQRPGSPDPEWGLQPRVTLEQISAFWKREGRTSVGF
Experimental: Anti-C16orf54 antibodies were used to detect C16orf54 expression as analyzed by immunohistochemistry (IHC). The transfected cell lines (5×10^7) and isolated hematological diseased cells were washed in PBS, centrifuged at 300 g for 10 minutes and the resultant cell pellets embedded and frozen in Tissue-Tek OCT compound (commercially available, e.g., Sakura Finetek USA, Inc., Torrence, Calif.; Fisher Scientific USA). 8 μm cryostat sections of the OCT embedded cells and human tissues were post-fixed in a 75% ethanol, 25% acetone mixture for 5 minutes followed by washing in PBS. The slides were then stained with exemplary primary anti-C16orf54 antibodies on a Dako Autostainer using standard avidin-biotin complex (ABC) IHC procedures. In some experiments, the endogenous peroxidase activity was blocked using Bloxall reagent (Vector SP-6000) for 5 minutes followed by avidin/biotin blocking reagents (Vector SP-2001) to block endogenous biotin within tissues. A pre-incubation with a protein blocker (Dako X0909) was performed followed by the primary antibodies incubation for 1 hour at room temperature. In some experiments, primary antibody 7-1C was diluted to a final concentration of 5 μg/ml and primary antibody 67-7A was diluted to a final concentration of 10 μg/ml using antibody diluent (Dako S3022). The control antibody used was a pan-mouse IgG antibody (Life Technologies 08-6599). In some experiments, after washing in PBS, the slides were incubated with a biotinylated horse anti-mouse antibody 1:200 (Vector BA-2001) for 30 minutes followed by a universal streptavidin-peroxidase conjugate (ABC-HRP Vector PK-6100) for 30 minutes. Diaminobenzedine was used as the chromagen (Sigma D5909) and the slides were counterstained with Mayers hematoxylin for 5 minutes, followed by dehydration and coverslipping.

[3] = target: T3, cynomolgus monkey C16orf54 (cynomolgus monkey (Macaca fascicularis), UniProt Q6UWD8 1-224 (human entry)); test: flow cytometry titration, F279-cyno-C16orf54 cells
T3 construct: also called cyno C16orf54; cyno-C16orf54
T3 chain: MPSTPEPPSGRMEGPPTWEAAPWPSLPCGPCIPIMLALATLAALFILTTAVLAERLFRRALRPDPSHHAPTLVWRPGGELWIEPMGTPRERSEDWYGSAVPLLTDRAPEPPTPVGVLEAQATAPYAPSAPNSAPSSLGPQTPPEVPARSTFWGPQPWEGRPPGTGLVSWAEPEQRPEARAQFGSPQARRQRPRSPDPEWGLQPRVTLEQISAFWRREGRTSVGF
Experimental: Anti-C16orf54 antibodies which bound to human C16orf54 were tested for their binding to cells expressing human C16orf54 and cells expressing cyno C16orf54. […] Median fluorescence intensities for each primary antibody concentration were used to derive a flow EC50/Kd using the one site-specific binding with Hill slope model in Prism (GraphPad Prism® Software). Results are shown as flow EC50 in Table 35.

human C16orf54 [4] = target: T4, human C16orf54 (human, UniProt Q6UWD8 1-224); test: flow cytometry, REH leukemia cells (endogenous C16orf54), 3 repeats
T4 construct: also called huC16orf54; hC16orf54
T4 sequence: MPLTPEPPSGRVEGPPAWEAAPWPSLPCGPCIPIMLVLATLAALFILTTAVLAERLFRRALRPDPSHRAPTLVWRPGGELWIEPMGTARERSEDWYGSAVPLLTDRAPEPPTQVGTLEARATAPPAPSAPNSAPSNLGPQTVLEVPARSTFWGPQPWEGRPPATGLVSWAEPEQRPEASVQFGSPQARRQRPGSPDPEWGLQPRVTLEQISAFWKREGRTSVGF

[5] = target: T5, N-terminal 32 amino acids of huC16orf54 coupled to biotin (human, biotin at the C-terminus); test: biolayer interferometry (OctetQK384), hybridoma supernatant on streptavidin sensors coated with the biotinylated peptide
T5 construct: also called 32 amino acid N-terminal extracellular domain
T5 peptide: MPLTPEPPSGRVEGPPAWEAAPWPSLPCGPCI
Experimental: Eight anti-huC16orf54 monoclonal antibodies were further screened for binding and subsequent off-rate analysis using the OctetQK384® sytem (ForteBio). Hybridoma supernatants were screened for association to and dissocation from streptavidin sensors coated with the N-terminal 32 amino acids of huC16orf54 coupled to biotin, and the calculated offrates (kdis) are shown in Table 31. Cloned hybridomas with […] off-rates were carried forward for antibody purification.

human C16orf54 [6] = target: T4, human C16orf54; test: flow cytometry, KG-1 leukemia cells (endogenous C16orf54), 6 repeats
[7] = target: T5, N-terminal 32 amino acids of huC16orf54 …; test: biolayer interferometry (OctetQK384), purified antibody on streptavidin sensors coated with the biotinylated peptide
Experimental: Affinity measurements of purified anti-huC16orf54 antibodies were carried out on the OctetQK384® sytem (ForteBio). After coating streptavidin sensors with the N-terminal 32 amino acids of huC16orf54 coupled to biotin at the C-terminus, association and dissociation of purified anti-huC16orf54 antibodies was monitored. KD values were derived using ForteBio's software.

human C16orf54 [8] = target: T4, human C16orf54; test: flow cytometry, NCI-H716 colon cancer cells (endogenous C16orf54), 2 repeats

B1: R29-7-1C: murine anti-C16orf54 monoclonal antibody, IgG2a; VH SEQ ID NO: 8, VL SEQ ID NO: 10 (antibody, V domains shown)
VH: MRVLILLWLFTAFPGILSDVQLQESGPGLVKPSQSLSLTCTVTGYSITSDYAWNWIRQFPGNKLEWMGYISYSGSIRYNPSLKSRISITRDTSKNQFFLQLNSVTTEDTATYYCAREKYDNYYYAMDYWGQGTSVTVSS
VL: MDSQAQVLMLLLLWVSGTCGDIVMSQSPSSLAVSVGEKVTLSCKSSQNLLYSTNQKNYLAWYQQKPGQSPKLLIYWASTRESGVPDRFTGSGSGTDFTLTISSVKAEDLAVYYCQQYYSYRTFGGGTKLEIK
modifications: R29-7-1C heavy chain variable region; R29-7-1C light chain variable region
For B1, the “staining of PBMC and BMMC from healthy donors (C16orf54 expression)” value [1] was “low but positive expression of C16orf54 with slightly higher level in BMMCs”.

B2: R29-67-7A: murine anti-C16orf54 monoclonal antibody, IgG2a; VH SEQ ID NO: 12, VL SEQ ID NO: 14 (antibody, V domains shown)
VH: MRVLILLWLFTAFPGILSDVQLQESGPGLVKPSQSLSLTCTVTGYSITSDYAWNWIRQFPGNKLEWMGYINYSGRTRYNPSLNSRISLTRDTSTNQFFLQLNSVTTEDTATYYCARENYDYEFYAMDYWGQGTSVTVSS
VL: MESQAQVLMLLLLWVSGTCGDIVMSQSPSSLAVSVGEKVTMSCKSSQNLLYSSNQKNYLAWYQQKPGQSPKLLIYWASTRESGVPDRFTGSGSGTDFTLTISSVKAEDLAVYYCQQYYIYRTFGGGTKLEIK
modifications: R29-67-7A heavy chain variable region; R29-67-7A light chain variable region
B2 was tested, and the “C16orf54 (67-7A) IHC” value ([2]; AML sample AML-183L) was “Positive”, the “C16orf54 (67-7A) IHC” value ([2]; AML sample AML-205L) was “Positive” and the “C16orf54 (67-7A) IHC” value ([2]; AML sample AML-211L) was “Positive”. For the same molecule, the “C16orf54 (67-7A) IHC” value ([2]; AML sample AML-213L) was “Positive”, the “C16orf54 (67-7A) IHC” value ([2]; CLL sample CLL-408L) was “Positive” and the “C16orf54 (67-7A) IHC” value ([2]; CLL sample CLL-BC042) was “Positive”. The “C16orf54 (67-7A) IHC” value ([2]; CLL sample CLL-BC043) was “Positive”, the “C16orf54 (67-7A) IHC” value ([2]; CLL sample CLL-UF048) was “Positive” and the “C16orf54 (67-7A) IHC” value ([2]; Lymphoma sample MD00402) was “Positive”. The “C16orf54 (67-7A) IHC” value ([2]; Lymphoma sample OD39986) was “Positive”, the “C16orf54 (67-7A) IHC” value ([2]; Lymphoma sample OD41079) was “Positive” and the “C16orf54 (67-7A) IHC” value ([2]; Lymphoma sample OD41411) was “Positive”. For the same molecule, the “C16orf54 (67-7A) IHC” value ([2]; Lymphoma sample WD3517) was “Positive” and the “IHC staining of hematological tumors” value ([2]; frozen sections, 10 μg/ml primary antibody) was “confirm the C16orf54 IHC expression in hematological tumors”.

B3: R29-7-1C (antibody, V domains shown)
VH: DVQLQESGPGLVKPSQSLSLTCTVTGYSITSDYAWNWIRQFPGNKLEWMGYISYSGSIRYNPSLKSRISITRDTSKNQFFLQLNSVTTEDTATYYCAREKYDNYYYAMDYWGQGTSVTVSS
VL: DIVMSQSPSSLAVSVGEKVTLSCKSSQNLLYSTNQKNYLAWYQQKPGQSPKLLIYWASTRESGVPDRFTGSGSGTDFTLTISSVKAEDLAVYYCQQYYSYRTFGGGTKLEIK
notes: Murine monoclonal IgG2a from a hybridoma
B3 was tested, and the EC50 [3] was 2.7 nM, the “Average MFI fold change relative to isotype control” value (human C16orf54 [4]) was 6.4 fold and the koff [5] was 0.0102 s⁻¹. The “Average MFI fold change relative to isotype control” value (human C16orf54 [6]) was 16.9 fold, the Kd [7] was 1.1 nM and the koff [7] was 7.95e-05 s⁻¹. For the same molecule, the kon [7] was 68100 M⁻¹ s⁻¹ and the “Average MFI fold change relative to isotype control” value (human C16orf54 [8]) was 3.4 fold.
